In patent US20250295772A1 (ABATA THERAPEUTICS, published 2025):
Changes are numbered by the printed parent chain.

T1: preproinsulin 73-90 peptide complexed with HLA-DRB1*04:01 (human, UniProt P01903 26-254; P01911 30-266)
T1 MHC II alpha: not shown
T1 MHC II beta: not shown
T1 peptide: GAGSLQPLALEGSLQKRG

B1: TCR-D (TCR)
TCR alpha: NSVTQMEGPVTLSEEAFLTINCTYTATGYPSLFWYVQYPGEGLQLLLKATKADDKGSNKGFEATYRKETTSFHLEKGSVQVSDSAVYFCALSEKTSYDKVIFGPGTSLSVIPNIQNPDPAVYQLRDSKSSDKSVCLFTDFDSQTNVSQSKDSDVYITDKTVLDMRSMDFKSNSAVAWSNKSDFACANAFNNSIIPEDTFFPSPESSCDVKLVEKSFETDTNLNFQNLSVIGFRILLLKVAGFNLLMTLRLWSS
TCR beta: NAGVTQTPKFRILKIGQSMTLQCTQDMNHNYMYWYRQDPGMGLKLIYYSVGAGITDKGEVPNGYNVSRSTTEDFPLRLELAAPSQTSVYFCASSYGPGGSEAFFGQGTRLTVVEDLNKVFPPEVAVFEPSEAEISHTQKATLVCLATGFFPDHVELSWWVNGKEVHSGVSTDPQPLKEQPALNDSRYCLSSRLRVSATFWQNPRNHFRCQVQFYGLSENDEWTQDRAKPVTQIVSAEAWGRADCGFTSVSYQQGVLSATILYEILLGKATLYAVLVSALVLMAMVKRKDF
B2: TCR-E DS (TCR)
TCR alpha: B1 TCR alpha with E93V, T160C
TCR beta: NAGVTQTPKFQVLKTGQSMTLQCAQDMNHNSMYWYRQDPGMGLRLIYYSASEGTTDKGEVPNGYNVSRLNKREFSLRLESAAPSQTSVYFCASSRDRGPETQYFGPGTRLLVLEDLKNVFPPEVAVFEPSEAEISHTQKATLVCLATGFYPDHVELSWWVNGKEVHSGVCTDPQPLKEQPALNDSRYCLSSRLRVSATFWQNPRNHFRCQVQFYGLSENDEWTQDRAKPVTQIVSAEAWGRADCGFTSESYQQGVLSATILYEILLGKATLYAVLVSALVLMAMVKRKDSRG
B3: TCR-D DS (TCR)
TCR alpha: B1 TCR alpha with T160C
TCR beta: B1 TCR beta with S170C
B4: TCR-E (TCR)
TCR alpha: B1 TCR alpha with E93V
TCR beta: B2 TCR beta with C170S
B5: TCR-H (TCR)
TCR alpha: EDQVTQSPEALRLQEGESSSLNCSYTVSGLRGLFWYRQDPGKGPEFLFTLYSAGEEKEKERLKATLTKKESFLHITAPKPEDSATYLCAVQLSDSNYKLTFGKGTLLTVNPNIQNPDPAVYQLRDSKSSDKSVCLFTDFDSQTNVSQSKDSDVYITDKTVLDMRSMDFKSNSAVAWSNKSDFACANAFNNSIIPEDTFFPSPESSCDVKLVEKSFETDTNLNFQNLSVIGFRILLLKVAGFNLLMTLRLWSS
TCR beta: NAGVTQTPKFQVLKTGQSMTLQCAQDMNHNSMYWYRQDPGMGLRLIYYSASEGTTDKGEVPNGYNVSRLNKREFSLRLESAAPSQTSVYFCASRGQVNEKLFFGSGTQLSVLEDLNKVFPPEVAVFEPSEAEISHTQKATLVCLATGFFPDHVELSWWVNGKEVHSGVSTDPQPLKEQPALNDSRYCLSSRLRVSATFWQNPRNHFRCQVQFYGLSENDEWTQDRAKPVTQIVSAEAWGRADCGFTSVSYQQGVLSATILYEILLGKATLYAVLVSALVLMAMVKRKDF
B6: TCR-H DS (TCR)
TCR alpha: B5 TCR alpha with T159C
TCR beta: B5 TCR beta with S169C
B7: TCR-F (TCR)
TCR alpha: EDQVTQSPEALRLQEGESSSLNCSYTVSGLRGLFWYRQDPGKGPEFLFTLYSAGEEKEKERLKATLTKKESFLHITAPKPEDSATYLCAVQATGYALNFGKGTSLLVTPHIQNPDPAVYQLRDSKSSDKSVCLFTDFDSQTNVSQSKDSDVYITDKTVLDMRSMDFKSNSAVAWSNKSDFACANAFNNSIIPEDTFFPSPESSCDVKLVEKSFETDTNLNFQNLSVIGFRILLLKVAGFNLLMTLRLWSS
TCR beta: GAGVSQSPSNKVTEKGKDVELRCDPISGHTALYWYRQSLGQGLEFLIYFQGNSAPDKSGLPSDRFSAERTGGSVSTLTIQRTQQEDSAVYLCASNLGGSRQPQHFGDGTRLSILEDLNKVFPPEVAVFEPSEAEISHTQKATLVCLATGFFPDHVELSWWVNGKEVHSGVSTDPQPLKEQPALNDSRYCLSSRLRVSATFWQNPRNHFRCQVQFYGLSENDEWTQDRAKPVTQIVSAEAWGRADCGFTSVSYQQGVLSATILYEILLGKATLYAVLVSALVLMAMVKRKDF
B8: TCR-F DS (TCR)
TCR alpha: B7 TCR alpha with T157C
TCR beta: B7 TCR beta with S171C
B9: TCR-C (TCR)
TCR alpha: RGNGKNQVEQSPQSLIILEGKNCTLQCNYTVSPFSNLRWYKQDTGRGPVSLTIMTFSENTKSNGRYTATLDADTKQSSLHITASQLSDSASYICVVGPSGGSNYKLTFGKGTLLTVNPNIQNPDPAVYQLRDSKSSDKSVCLFTDFDSQTNVSQSKDSDVYITDKTVLDMRSMDFKSNSAVAWSNKSDFACANAFNNSIIPEDTFFPSPESSCDVKLVEKSFETDTNLNFQNLSVIGFRILLLKVAGFNLLMTLRLWSS
TCR beta: DSGVTQTPKHLITATGQRVTLRCSPRSGDLSVYWYQQSLDQGLQFLIQYYNGEERAKGNILERFSAQQFPDLHSELNLSSLELGDSALYFCASSGQGFLGNTEAFFGQGTRLTVVEDLNKVFPPEVAVFEPSEAEISHTQKATLVCLATGFFPDHVELSWWVNGKEVHSGVSTDPQPLKEQPALNDSRYCLSSRLRVSATFWQNPRNHFRCQVQFYGLSENDEWTQDRAKPVTQIVSAEAWGRADCGFTSVSYQQGVLSATILYEILLGKATLYAVLVSALVLMAMVKRKDF
B10: TCR-C DS (TCR)
TCR alpha: B9 TCR alpha with T166C
TCR beta: B9 TCR beta with S172C
B11: TCR-I (TCR)
TCR alpha: IDAKTTQPTSMDCAEGRAANLPCNHSTISGNEYVYWYRQIHSQGPQYIIHGLKNNETNEMASLIITEDRKSSTLILPHATLRDTAVYYCIVRFQSGGYQKVTFGTGTKLQVIPNIQNPDPAVYQLRDSKSSDKSVCLFTDFDSQTNVSQSKDSDVYITDKTVLDMRSMDFKSNSAVAWSNKSDFACANAFNNSIIPEDTFFPSPESSCDVKLVEKSFETDTNLNFQNLSVIGFRILLLKVAGFNLLMTLRLWSS
TCR beta: DAGVIQSPRHEVTEMGQEVTLRCKPISGHNSLFWYRQTMMRGLELLIYFNNNVPIDDSGMPEDRFSAKMPNASFSTLKIQPSEPRDSAVYFCASSIQAGGRYNEQFFGPGTRLTVLEDLKNVFPPEVAVFEPSEAEISHTQKATLVCLATGFYPDHVELSWWVNGKEVHSGVSTDPQPLKEQPALNDSRYCLSSRLRVSATFWQNPRNHFRCQVQFYGLSENDEWTQDRAKPVTQIVSAEAWGRADCGFTSESYQQGVLSATILYEILLGKATLYAVLVSALVLMAMVKRKDSRG
B12: TCR-I DS (TCR)
TCR alpha: B11 TCR alpha with T161C
TCR beta: B11 TCR beta with S173C
B13: TCR-B (TCR)
TCR alpha: EDKVVQSPLSLVVHEGDTVTLNCSYEVTNFRSLLWYKQEKKAPTFLFMLTSSGIEKKSGRLSSILDKKELFSILNITATQTGDSAVYLCAVNSGAGSYQLTFGKGTKLSVIPNIQNPDPAVYQLRDSKSSDKSVCLFTDFDSQTNVSQSKDSDVYITDKTVLDMRSMDFKSNSAVAWSNKSDFACANAFNNSIIPEDTFFPSPESSCDVKLVEKSFETDTNLNFQNLSVIGFRILLLKVAGFNLLMTLRLWSS
TCR beta: DAEITQSPRHKITETGRQVTLACHQTWNHNNMFWYRQDLGHGLRLIHYSYGVQDTNKGEVSDGYSVSRSNTEDLPLTLESAASSQTSVYFCASSSGGLYEQYFGPGTRLTVTEDLKNVFPPEVAVFEPSEAEISHTQKATLVCLATGFYPDHVELSWWVNGKEVHSGVSTDPQPLKEQPALNDSRYCLSSRLRVSATFWQNPRNHFRCQVQFYGLSENDEWTQDRAKPVTQIVSAEAWGRADCGFTSESYQQGVLSATILYEILLGKATLYAVLVSALVLMAMVKRKDSRG
B14: TCR-B DS (TCR)
TCR alpha: B13 TCR alpha with T160C
TCR beta: B13 TCR beta with S169C
B15: TCR-G (TCR)
TCR alpha: QKEVEQNSGPLSVPEGAIASLNCTYSDRGSQSFFWYRQYSGKSPELIMFIYSNGDKEDGRFTAQLNKASQYVSLLIRDSQPSDSATYLCAVIYSSASKIIFGSGTRLSIRPNIQNPDPAVYQLRDSKSSDKSVCLFTDFDSQTNVSQSKDSDVYITDKTVLDMRSMDFKSNSAVAWSNKSDFACANAFNNSIIPEDTFFPSPESSCDVKLVEKSFETDTNLNFQNLSVIGFRILLLKVAGFNLLMTLRLWSS
TCR beta: SQTIHQWPATLVQPVGSPLSLECTVEGTSNPNLYWYRQAAGRGLQLLFYSVGIGQISSEVPQNLSASRPQDRQFILSSKKLLLSDSGFYLCAWSVQRLGRGGETQYFGPGTRLLVLEDLKNVFPPEVAVFEPSEAEISHTQKATLVCLATGFYPDHVELSWWVNGKEVHSGVSTDPQPLKEQPALNDSRYCLSSRLRVSATFWQNPRNHFRCQVQFYGLSENDEWTQDRAKPVTQIVSAEAWGRADCGFTSESYQQGVLSATILYEILLGKATLYAVLVSALVLMAMVKRKDSRG
B16: TCR-G DS (TCR)
TCR alpha: B15 TCR alpha with T159C
TCR beta: B15 TCR beta with S173C

Molecular target: T1, preproinsulin 73-90 peptide complexed …
Assay: cell-based or functional assay

B1 and B2 are within 1.5-fold of each other in “EC50 (nM) of CD69 upregulation, conventional CD4+ T cells + BLS-DRB1*04:01 cells, peptide titrated” value (“EC50 (nM) of CD69 upregulation” for short): 4.42 nM for the first, 3.47 nM for the second.

Going from B3 to B4, the “EC50 (nM) of CD69 upregulation” value rises from 2.18 nM to 7.78 nM (3.6-fold).

Compared with B5, B6 is 1.5-fold lower in “EC50 (nM) of CD69 upregulation” value: 0.93 nM for the first, 0.62 nM for the second.

B7 and B8 are within 1.5-fold of each other in “EC50 (nM) of CD69 upregulation” value: 1.5 nM for the first, 1.36 nM for the second.

Compared with B9, B10 is 6.4-fold lower in “EC50 (nM) of CD69 upregulation” value: 156 nM for the first, 24.2 nM for the second.

First: B11
Second: B12
The “EC50 (nM) of CD69 upregulation” value of the first is 1.9-fold higher: 14.9 nM for the first, 8.03 nM for the second.

Going from B13 to B14, the “EC50 (nM) of CD69 upregulation” value falls from 5.68 nM to 3.78 nM (1.5-fold).

First: B15
Second: B16
The “EC50 (nM) of CD69 upregulation” value of the first is 5.9-fold higher: 11.2 nM for the first, 1.89 nM for the second.
